Results from the supplement of paper PMC10567573.

B1: TEKT4 (parent)
chain: SEVEELNMSLTALREKLLEAEQSL
B2: CAMK2A (parent)
chain: CIQQILEAVLHCHQMGVVHRDLKP

Variants of: B1
Assay: protein stability index of a GFP-peptide fusion (GPS, HEK-293T) (PSI 1-6); higher = more stable
Conditions: c terminus: a fixed tail appended
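Also: lentivirally expressed fusions sorted by FACS into six bins by GFP to DsRed ratio, PSI derived from sequencing read proportions per bin multiplied by bin number.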

Protein stability index of substitutions, site by site:
Q22: A 2.81; L 1.96; D 2.48; E 3.37; W 1.89; H 2.5; R 2.64; M 1.91; P 3.99; N 2.54; K 3.36; S 3.44; T 3.64; F 1.75; C 2.37; Y 1.94; I 1.72; G 3.6; V 2.23
L24: D 5.19; Y 3.82; K 5.14; M 4.18; H 4.41; T 4.97; I 3.1; C 3.82; S 4.63; R 4.23; N 4.97; F 4.51; E 4.69; Q 4.78; W 3.74; G 5.01; A 4.18; P 4.99; V 2.25
E21: R 3.26; S 2.94; W 2.36; H 3.06; K 3.42; P 2.45; V 2.36; Y 2.77; Q 3.44; I 2.06; C 2.23; D 4.83; N 3.34; G 3.51; F 2.62; M 3.16; L 2.81; T 2.97; A 2.8
A20: V 4.41; T 4.26; N 4.52; K 4.9; R 4.28; L 3.98; G 4.88; H 3.93; M 3.73; S 4.18; P 4.76; I 3.55; Y 3.88; Q 4.32; W 2.95
S23: R 2.9; P 4.45; A 2.47; L 2.37; M 2.74; W 2.75; G 3.66; V 2.87; C 2.39; E 3.93; D 3.36; I 2.74; N 3.21; Y 2.33; Q 2.72; F 2.48; T 2.77; K 3.17; H 2.31

Variants of: B2
Assay: as above
Conditions: c terminus: a fixed tail appended

Protein stability index of substitutions, site by site:
Q14: F 2.94; I 2.86; E 3.49; R 1.94; N 1.28; A 2.29; T 3.88; P 2; C 2.78; Y 3.42; W 2.76
I2: E 1.78; V 2.74; P 2.07; W 1.35; D 2.09; N 1.32; A 2.45; C 3.15; R 2.21
L6: D 2.93; E 2.44; W 1.87; G 2.14; T 1.69; F 1.07; R 1.97; P 1.83; Y 2.13; K 2.4; C 1.84; I 2.64; M 2.75; S 1.71; A 1.4
Q3: G 3.91; Y 3.67; A 3.85; F 2.24; V 3.85; T 3.42; D 3.17; H 3.11
P24: C 1.95; I 3.7; L 1.78; G 2.88; D 2.99; W 1.82; F 2.58; Y 3; R 2.44
D21: S 1.66; P 2.07; W 3.37; L 3.01; K 4.29; G 2.28; T 2.36; F 2.97; N 4.66
V17: M 2.44; I 1.95; E 2.01; A 1.8; P 2.65; F 1.59; Y 3.53; C 2.21; G 3.75; N 3.21; R 3.99; L 2.42; Q 2.79; D 2.57
K23: W 3.83; C 3.94; L 2.73; I 2.2; D 3.12; R 3.33; Y 3.71
H19: S 2.53; K 2.34; R 2.92; G 3.33; F 3.5; W 3.38; M 2.59; Y 2.79; D 2.72; T 3.67
H13: K 1.73; D 2.57; I 2.85; Q 1.22; F 1.28; N 2.28; R 1.55; G 3.66; W 1.27
L10: A 1.35; F 2.72; N 2.05; E 1.53; H 2.19; D 1.95; P 1.66; G 1.67; S 2.21; K 1.9
E7: F 2.42; A 2.02; K 2.25; S 2.57; G 4.42; T 1.99; Q 2.55; R 2.81; C 3.72; Y 4.43; D 3.99
M15: G 2.05; F 1.84; W 3.1; H 2.24; S 2.6; E 2.68; C 2.85; P 1.81; K 2.42
H11: I 3.32; M 4.07; F 3.5; D 3.55; V 1.53; E 2.91; S 2.86; K 1.72; T 2.39; N 2.4
Q4: G 5.02; N 2.68; M 1.92; T 2.74; P 1.69
V18: N 2.84; S 1.92; P 2.35; R 1.68; I 2; C 2.28; Q 3.46; D 2.78; K 2.97; G 2.31; T 2.33; F 1.78
V9: R 2.01; D 1.83; E 1.87; I 2.04; G 2; T 2.86; L 3.23; W 2.45; H 2.35; M 2.92; N 1.96
C12: G 1.18; T 2.74; K 1.82; D 1.54; P 1.53; E 2.58; H 2.98; N 3.26; I 2.66; M 2.79; W 2.65
G16: P 2.69; I 2.24; H 2.16; M 3.07; V 1.3; W 1.79; Y 1.91; E 3.1; C 2.97
C1: I 3.46; M 4.15; K 2.82; V 2.22; F 3.55; L 3.19; W 1.78; Y 2.37; R 2.22; D 2.12; T 2.82
R20: D 2.72; W 3.1; T 3.37; K 2.66; F 1.97; Y 2.17; P 1.77; G 2.37; N 1.52
L22: A 2.87; P 1.82; T 3.01; C 3.02; K 2.53; W 2.28; G 2.03; I 3.05; R 1.03; S 2.34; Q 1.62; F 2.66
I5: W 2.01; Q 1.73; D 2.65; P 1.81; E 2.3; T 2.89; K 2.16; M 4.53; R 2.2; H 2.44; C 3.12; S 1.69
A8: D 2.04; G 3.6; M 3.63; T 3.67; C 2.57; Y 2.54; R 1.5; H 2.39; K 2.86; V 2.26
